Measured values from the supplement of paper PMC9732359.
± gives the uncertainty stated by the source.

Experiment: protein stability index of a GFP-peptide fusion (yeast GPS) (PSI 1-4); higher = more stable; sorted into four equal gates, so the index is relative within each strain
Outline: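 Each library plasmid carries Cherry plus GFP with a tiled 17-residue yeast protein peptide fused downstream, and the pooled library was carried in yeast. Mid-log cultures in leucine-free medium were sorted into four equal gates by GFP/Cherry ratio. Reads from Illumina sequencing of PCR-amplified plasmids from each gate were assigned to strains by barcodes. Per peptide, the protein stability index was computed as the summed products of gate read frequency and gate number.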

| Sequence | protein stability index (doa10∆) | protein stability index (pdr5∆) | protein stability index (san1∆) | protein stability index (ubr1∆) |
| --- | --- | --- | --- | --- |
| RAKPVTNSSILLGKILP [RRP6] | 2.2 ± 0.074 | 2.14 ± 0.077 | 2.27 ± 0.12 | 2.39 ± 0.13 |
| MLQISDDNEMTRDDLLT [RRI2] | 2.93 ± 0.1 | 3.27 ± 0.1 | 3.17 ± 0.038 | 3.1 ± 0.056 |
| KQENETMQPPYIQERLK [MED11] | 2.88 ± 0.055 | 3.06 ± 0.054 | 3.19 ± 0.04 | 3.02 ± 0.033 |
| TELLDEFIAAVNNPQEE [RPN10] | 3.01 ± 0.17 | 3.17 ± 0.14 | 3.08 ± 0.064 | 2.83 ± 0.15 |
| NDNENIVNNDLPTTVVS [MED2] | 2.55 ± 0.053 | 2.8 ± 0.05 | 2.63 ± 0.042 | 2.89 ± 0.039 |
| QKKVPDKLLDPTTVSYI [SCL1] | 2.9 ± 0.05 | 2.28 ± 0.047 | 2.4 ± 0.056 | 2.67 ± 0.044 |
| TKNNTQASGITAGAAAN [SSN3] | 1.86 ± 0.094 | 2.08 ± 0.051 | 2.07 ± 0.11 | 1.97 ± 0.062 |
| MVKLIVMLCTLTGYQNN [YJL039C/NUP192] | 1.9 ± 0.12 | 1.52 ± 0.075 | 1.99 ± 0.11 | 1.5 ± 0.095 |
| NGLKDQLNEERSRYRRE [YIL149C/MLP2] | 2.77 ± 0.19 | 2.5 ± 0.22 | – | 2.86 ± 0.17 |
| TRGRSATIRETYEIICD [RRP43] | 2.59 ± 0.049 | 2.68 ± 0.05 | 2.57 ± 0.058 | 2.62 ± 0.035 |
| INAVLVNDNDERAARVV [RPO31] | 2.88 ± 0.12 | 3.04 ± 0.13 | 2.94 ± 0.097 | 2.56 ± 0.084 |
| LFEIYRDLGDDRVFNVP [YJR042W/NUP85] | 2.87 ± 0.11 | 3.2 ± 0.1 | 2.75 ± 0.11 | 2.89 ± 0.097 |
| QDSNVMPGSQINSPMPQ [SNF2] | 3.26 ± 0.2 | 3.12 ± 0.11 | 3.32 ± 0.12 | 3.12 ± 0.17 |
| LIQKGYLQRGDDGESYA [CDC53] | 3.68 ± 0.15 | 2.68 ± 0.1 | 3.34 ± 0.065 | 3.12 ± 0.066 |
| NSFTKGNVFSPIDNNII [SNU114] | 2.98 ± 0.093 | 2.92 ± 0.074 | 2.83 ± 0.081 | 2.95 ± 0.058 |
| KSLEEQEYAIEMKIGSI [SMC1] | 2.71 ± 0.11 | 3.23 ± 0.18 | 2.67 ± 0.11 | 2.66 ± 0.2 |
| VITLAEYEKRNHGGSLG [SRP68] | 3.42 ± 0.11 | 3.06 ± 0.13 | 3.28 ± 0.074 | 3.55 ± 0.14 |
| IDTLLYLMTYPQQPMVK [RET1] | 1.52 ± 0.097 | 2.09 ± 0.12 | 2.33 ± 0.13 | 1.53 ± 0.056 |
| LITQLDGFDPRGNIKVM [RPT1] | – | 3.31 ± 0.22 | 3.15 ± 0.09 | 3.32 ± 0.21 |
| QRVFDETEQEYSPSNEI [YDL116W/NUP84] | 3.28 ± 0.067 | 3.46 ± 0.069 | 3.21 ± 0.058 | 3.29 ± 0.043 |
| KIQASDVNIIGKDRIAI [RPO31] | 2.82 ± 0.11 | 3.05 ± 0.098 | 2.87 ± 0.087 | 3.35 ± 0.081 |
| NVEKYPTFVEFILIPLY [SNU114] | 2.33 ± 0.052 | 2.46 ± 0.054 | 2.04 ± 0.069 | 2.65 ± 0.053 |
| LNPQVADINKNFLSVIT [RPN2] | 1.81 ± 0.065 | 2.19 ± 0.053 | 1.98 ± 0.071 | 1.95 ± 0.053 |
| EAQIKDWVENELEALKL [FAS2] | 1.96 ± 0.14 | 1.25 ± 0.091 | – | 2.01 ± 0.1 |
| FNVEYFAKEKLTKKEKK [RPL6A] | 2.23 ± 0.084 | 1.68 ± 0.066 | 1.44 ± 0.12 | 1.9 ± 0.073 |
| GPKSGSTMGTPTVHNST [PGD1] | 3.05 ± 0.078 | 3.04 ± 0.055 | 3.01 ± 0.061 | 3.12 ± 0.06 |
| VNFTEIGGLIPQWKRHL [YCS4] | 3.46 ± 0.25 | – | – | – |
